Measurements as given in patent US20140073563A1.

Target: human FGFR1c together with human beta-Klotho (KLB) (human), P11362
Assay: cell-based or functional assay

Chain of human FGFR1c together with human beta-Klotho (KLB) (human), P11362 (P11362 22-822, chain 1 of 2): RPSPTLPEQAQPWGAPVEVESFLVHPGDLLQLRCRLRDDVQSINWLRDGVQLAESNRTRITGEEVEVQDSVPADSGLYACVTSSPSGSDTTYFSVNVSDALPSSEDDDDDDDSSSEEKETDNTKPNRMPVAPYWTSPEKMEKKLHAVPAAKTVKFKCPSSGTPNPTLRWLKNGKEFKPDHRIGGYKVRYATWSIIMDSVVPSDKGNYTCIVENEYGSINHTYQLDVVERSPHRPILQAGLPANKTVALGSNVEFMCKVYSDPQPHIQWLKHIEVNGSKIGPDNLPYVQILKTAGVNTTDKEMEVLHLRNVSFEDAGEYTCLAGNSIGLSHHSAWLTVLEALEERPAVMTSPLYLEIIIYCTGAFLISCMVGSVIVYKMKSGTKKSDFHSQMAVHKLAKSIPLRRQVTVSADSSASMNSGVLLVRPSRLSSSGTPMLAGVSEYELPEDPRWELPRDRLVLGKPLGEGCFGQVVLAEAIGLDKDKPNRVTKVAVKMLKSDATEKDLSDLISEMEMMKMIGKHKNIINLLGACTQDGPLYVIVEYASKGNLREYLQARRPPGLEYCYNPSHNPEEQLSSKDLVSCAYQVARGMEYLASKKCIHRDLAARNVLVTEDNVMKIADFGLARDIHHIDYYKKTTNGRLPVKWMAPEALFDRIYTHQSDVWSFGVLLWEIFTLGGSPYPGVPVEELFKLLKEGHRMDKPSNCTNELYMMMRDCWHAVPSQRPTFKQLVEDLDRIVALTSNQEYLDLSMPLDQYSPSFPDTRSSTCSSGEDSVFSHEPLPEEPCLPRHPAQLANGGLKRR
Chain of human FGFR1c together with human beta-Klotho (KLB) (human), P11362 (Q86Z14 whole entry, chain 2 of 2, further chain): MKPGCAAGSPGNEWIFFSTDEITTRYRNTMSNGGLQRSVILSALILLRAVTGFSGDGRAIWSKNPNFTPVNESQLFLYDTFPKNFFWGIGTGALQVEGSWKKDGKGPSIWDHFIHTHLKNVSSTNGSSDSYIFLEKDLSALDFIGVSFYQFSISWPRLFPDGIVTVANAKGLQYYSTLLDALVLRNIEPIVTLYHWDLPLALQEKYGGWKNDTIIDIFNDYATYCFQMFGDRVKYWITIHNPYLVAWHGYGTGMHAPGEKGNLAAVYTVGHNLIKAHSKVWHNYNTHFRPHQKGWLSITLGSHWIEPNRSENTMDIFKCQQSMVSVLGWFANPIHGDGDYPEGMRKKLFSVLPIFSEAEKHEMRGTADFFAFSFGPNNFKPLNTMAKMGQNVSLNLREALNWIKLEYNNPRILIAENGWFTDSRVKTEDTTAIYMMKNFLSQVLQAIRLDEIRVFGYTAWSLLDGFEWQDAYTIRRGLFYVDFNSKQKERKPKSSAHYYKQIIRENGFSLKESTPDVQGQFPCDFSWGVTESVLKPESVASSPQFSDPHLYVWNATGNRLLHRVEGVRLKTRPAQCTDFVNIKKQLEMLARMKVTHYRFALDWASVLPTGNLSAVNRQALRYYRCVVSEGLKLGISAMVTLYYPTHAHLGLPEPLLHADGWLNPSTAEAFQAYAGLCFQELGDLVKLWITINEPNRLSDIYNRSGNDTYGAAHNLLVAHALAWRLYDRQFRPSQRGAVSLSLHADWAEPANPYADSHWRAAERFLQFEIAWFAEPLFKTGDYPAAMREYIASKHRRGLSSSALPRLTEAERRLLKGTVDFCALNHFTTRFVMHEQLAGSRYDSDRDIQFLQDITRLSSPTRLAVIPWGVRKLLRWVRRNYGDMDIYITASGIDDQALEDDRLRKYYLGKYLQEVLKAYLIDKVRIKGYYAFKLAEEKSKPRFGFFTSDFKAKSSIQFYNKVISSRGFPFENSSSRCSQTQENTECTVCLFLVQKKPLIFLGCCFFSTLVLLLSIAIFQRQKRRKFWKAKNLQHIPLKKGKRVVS

B1: FGF21 wild type, Q9NSA1 29-209 (ligand)
chain: HPIPDSSPLLQPGGQVRQRYLYTDDAQQTEAHLEIREDGTVGGAADQSPESLLQLKALKPGVIQILGVKTSRFLCQRPDGALYGSLHFDPEACSFRELLLEDGYNVYQSEAHGLPLHLPGNKSPHRDPAPRGPARFLPLPGLPPAPPEPPGILAPQPPDVGSSDPLSMVGPSQGRSPSYAS
- pERK ICW EC50: 0.135 nmol/L
- pFGFR ICW EC50: 4.3 nmol/L
